From paper PMC4142084 (Molecular cell, 2014)
Positions count from the first letter of the chain named.

B1: purified recombinant FLAG-6PGD (6-phosphogluconate dehydrogenase) WT (enzyme, human)
chain: MAQADIALIGLAVMGQNLILNMNDHGFVVCAFNRTVSKVDDFLANEAKGTKVVGAQSLKEMVSKLKKPRRIILLVKAGQAVDDFIEKLVPLLDTGDIIIDGGNSEYRDTTRRCRDLKAKGILFVGSGVSGGEEGARYGPSLMPGGNKEAWPHIKTIFQGIAAKVGTGEPCCDWVGDEGAGHFVKMVHNGIEYGDMQLICEAYHLMKDVLGMAQDEMAQAFEDWNKTELDSFLIEITANILKFQDTDGKHLLPKIRDSAGQKGTGKWTAISALEYGVPVTLIGEAVFARCLSSLKDERIQASKKLKGPQKFQFDGDKKSFLEDIRKALYASKIISYAQGFMLLRQAATEFGWTLNYGGIALMWRGGCIIRSVFLGKIKDAFDRNPELQNLLLDDFFKSAVENCQDSWRRAVSTGVQAGIPMPCFTTALSFYDGYRHEMLPASLIQAQRDYFGAHTYELLAKPGQFIHTNWTGHGGTVSSSSYNA
modifications: background lysine acetylation; acetylation at K76 and K294 increased after incubation with lysates of NAM+TSA-treated H1299 cells
B2: purified recombinant FLAG-6PGD K76R (enzyme, human)
chain: B1 chain with K76R
modifications: acetylation at K294 increased after incubation with lysates of NAM+TSA-treated H1299 cells

Biological target: the molecule itself
Assay: cross-linking

Row | Protein | stoichiometry N
1 | B1 | 2
2 | B2 | 2
